Consider two substances from US20130344070A1.

One assay deals with murine CCR2 (murine) (UniProt P51683). In words: cell-based or functional assay.
Assay [1] concerns the target human CCR2 (CC-Chemokine Receptor 2) (human) (UniProt P41597). In words: cell-based or functional assay.

Sequence of human CCR2 (CC-Chemokine Receptor 2) (human) (P41597 whole entry): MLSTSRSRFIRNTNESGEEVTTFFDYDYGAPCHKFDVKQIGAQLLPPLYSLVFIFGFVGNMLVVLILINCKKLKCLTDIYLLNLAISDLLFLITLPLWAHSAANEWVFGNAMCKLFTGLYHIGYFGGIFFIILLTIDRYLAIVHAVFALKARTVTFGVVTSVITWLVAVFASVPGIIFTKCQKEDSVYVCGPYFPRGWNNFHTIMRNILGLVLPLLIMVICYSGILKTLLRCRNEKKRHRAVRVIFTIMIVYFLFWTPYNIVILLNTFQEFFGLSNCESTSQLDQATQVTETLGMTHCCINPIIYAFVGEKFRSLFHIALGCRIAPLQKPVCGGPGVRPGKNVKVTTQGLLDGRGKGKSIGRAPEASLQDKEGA
Sequence of murine CCR2 (murine) (P51683 whole entry): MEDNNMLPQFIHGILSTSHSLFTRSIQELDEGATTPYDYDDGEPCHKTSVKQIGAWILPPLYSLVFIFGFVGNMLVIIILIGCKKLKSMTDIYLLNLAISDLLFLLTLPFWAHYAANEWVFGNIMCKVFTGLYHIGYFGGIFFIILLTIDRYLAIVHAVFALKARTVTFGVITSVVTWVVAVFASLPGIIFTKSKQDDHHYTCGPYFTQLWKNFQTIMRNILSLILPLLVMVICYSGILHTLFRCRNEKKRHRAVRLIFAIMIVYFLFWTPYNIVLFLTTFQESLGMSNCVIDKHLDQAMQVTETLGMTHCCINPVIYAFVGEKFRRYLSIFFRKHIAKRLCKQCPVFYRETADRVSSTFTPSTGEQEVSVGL

In turn, “mMCP-1 (mouse MCP-1) (from UniProt P10148 24-148) (ligand)” registered an EC50 of mMCP-1, mMCP-1-induced chemotaxis, WEHI 274.1 cells in the assay with murine CCR2 (murine) of 120 pM.
“human MCP-1 (PROSPEC # CHM-271) (from UniProt P13500 24-99) (ligand)”: in assay [1], the EC50 of MCP-1, MCP-1-induced calcium flux, THP-1 cells was found to be 3300 pM; the EC50 of MCP-1, MCP-1-induced calcium flux, primary human monocytes amounted to 3790 pM; the EC50 of MCP-1, MCP-1-induced chemotaxis, THP-1 cells stood at 800 pM; the EC50 of MCP-1, MCP-1-induced chemotaxis, primary human monocytes came to 389 pM.
